Assay [1] has as its target T1, cynomolgus monkey FcγRIIb extracellular domain, C-terminal His-tag (cynomolgus monkey).
T1 construct: also called cyno FcγRIIb; cynoFcγRIIb; not shown: His-tag added to C-terminus
T1 chain: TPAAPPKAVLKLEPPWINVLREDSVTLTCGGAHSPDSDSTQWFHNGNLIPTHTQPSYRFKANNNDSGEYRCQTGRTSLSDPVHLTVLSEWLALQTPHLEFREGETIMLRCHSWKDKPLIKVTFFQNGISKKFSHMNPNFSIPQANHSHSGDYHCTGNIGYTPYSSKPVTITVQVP
The experiment in a line: SPR (BIACORE); KD of parent SG1 / KD of variant.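 Note: relative to parent M103205H795-SG1 carrying the SG1 human heavy chain constant region.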 A general note: Surface plasmon resonance follows binding to a sensor surface in real time, without labels.

Assay [2] deals with T2, cynomolgus monkey FcγRIIa3 extracellular domain, C-terminal His-tag (cynomolgus monkey).
T2 construct: also called cyno FcγRIIa3; cynoFcgRIIa3; not shown: His-tag added to C-terminus
T2 chain: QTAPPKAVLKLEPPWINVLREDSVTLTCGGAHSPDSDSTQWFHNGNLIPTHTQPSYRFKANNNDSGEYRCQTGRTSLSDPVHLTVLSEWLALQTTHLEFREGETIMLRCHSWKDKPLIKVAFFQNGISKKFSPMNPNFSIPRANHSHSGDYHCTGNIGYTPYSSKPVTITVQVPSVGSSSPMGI
The experiment in a line: SPR (BIACORE); KD of parent SG1 / KD of variant.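 Note: relative to parent M103205H795-SG1 carrying the SG1 human heavy chain constant region.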

For assay [3], the target named is T3, human FcγRIIaR extracellular domain, C-terminal His-tag (human, UniProt P12318 34-217).
T3 construct: also called human FcγRIIa (type R); FcgRIIaR; not shown: His-tag added to C-terminus
T3 chain: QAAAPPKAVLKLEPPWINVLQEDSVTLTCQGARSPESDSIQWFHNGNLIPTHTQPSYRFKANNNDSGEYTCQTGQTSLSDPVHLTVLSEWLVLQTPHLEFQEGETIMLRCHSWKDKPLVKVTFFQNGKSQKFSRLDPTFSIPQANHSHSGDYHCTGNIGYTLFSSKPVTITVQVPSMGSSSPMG
The experiment in a line: SPR (BIACORE); KD of parent SG1 / KD of variant.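 Note: relative to parent M103205H795-SG1 carrying the SG1 human heavy chain constant region.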

For assay [4], the target named is T4, cynomolgus monkey FcγRIIa2 extracellular domain, C-terminal His-tag (cynomolgus monkey).
T4 construct: also called cyno FcγRIIa2; cynoFcgRIIa2; not shown: His-tag added to C-terminus
T4 chain: T2 chain with I127K, K130N, P133H, R142Q
Put plainly: SPR (BIACORE); KD of parent SG1 / KD of variant.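 Note: relative to parent M103205H795-SG1 carrying the SG1 human heavy chain constant region.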

Assay [5] has as its target T5, human FcγRIIIaV extracellular domain, C-terminal His-tag (human, UniProt P08637 17-208).
T5 construct: also called FcgRIIIaV; not shown: His-tag added to C-terminus
The experiment in a line: SPR (BIACORE); KD of parent SG1 / KD of variant.

Assay [6] deals with T6, cynomolgus monkey FcγRIIa1 extracellular domain, C-terminal His-tag (cynomolgus monkey).
T6 construct: also called cyno FcγRIIa1; cynoFcgRIIa1; not shown: His-tag added to C-terminus
T6 chain: T2 chain with T95P, A121T, S128A, P133H, N135D
The experiment in a line: SPR (BIACORE); KD of parent SG1 / KD of variant.

In assay [7] the target is T7, human FcγRIIb extracellular domain, C-terminal His-tag (human, UniProt P31994 43-217).
T7 construct: also called humanFcgRIIb; not shown: His-tag added to C-terminus
T7 sequence: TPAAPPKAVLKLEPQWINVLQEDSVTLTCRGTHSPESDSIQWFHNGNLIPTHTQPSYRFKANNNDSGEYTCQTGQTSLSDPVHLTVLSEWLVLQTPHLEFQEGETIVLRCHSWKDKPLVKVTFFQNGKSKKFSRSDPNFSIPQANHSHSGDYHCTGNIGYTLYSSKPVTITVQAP
The experiment in a line: SPR (BIACORE); KD of parent SG1 / KD of variant.

Assay [8] addresses T8, cynomolgus monkey FcγRIIIaS extracellular domain, C-terminal His-tag (cynomolgus monkey, UniProt A3RFZ7 21-206 (rhesus entry)).
T8 construct: also called cyno FcγRIIIaS; cynoFcγRIIIaS; not shown: His-tag added to C-terminus
Put plainly: SPR (BIACORE); KD of parent SG1 / KD of variant.

Assay [9] concerns the target T9, human FcγRIIaH extracellular domain, C-terminal His-tag (human, UniProt P12318 34-217).
T9 construct: also called human FcγRIIa (type H); FcgRIIaH; not shown: His-tag added to C-terminus
T9 sequence: T3 chain with R134H
The experiment in a line: SPR (BIACORE); KD of parent SG1 / KD of variant.

Assay [10] concerns the target T1, cynomolgus monkey FcγRIIb extracellular …. The experiment in a line: SPR (BIACORE), antibody captured, FcγR analyte.
The target of assay [11] is T2, cynomolgus monkey FcγRIIa3 …. Put plainly: SPR (BIACORE), antibody captured, FcγR analyte.
Assay [12] deals with T3, human FcγRIIaR extracellular domain, …. Put plainly: SPR (BIACORE), antibody captured, FcγR analyte.
Assay [13] addresses T4, cynomolgus monkey FcγRIIa2 …. Put plainly: SPR (BIACORE), antibody captured, FcγR analyte.
Assay [14] has as its target T5, human FcγRIIIaV extracellular domain, …. Put plainly: SPR (BIACORE), antibody captured, FcγR analyte.
Assay [15] deals with T6, cynomolgus monkey FcγRIIa1 …. Put plainly: SPR (BIACORE), antibody captured, FcγR analyte.
In assay [16] the target is T7, human FcγRIIb extracellular domain, …. Put plainly: SPR (BIACORE), antibody captured, FcγR analyte.
Assay [17] has as its target T8, cynomolgus monkey FcγRIIIaS …. Put plainly: SPR (BIACORE), antibody captured, FcγR analyte.
The target of assay [18] is T9, human FcγRIIaH extracellular domain, …. The experiment in a line: SPR (BIACORE), antibody captured, FcγR analyte.

Where a chain is given by its changes, count along the chain named. Names and notes keep the numbering of the source.

In general, Kd refers to the free concentration of one partner at which half of the binding sites on the other are occupied at equilibrium, for simple one-to-one binding.

T8 sequence (A3RFZ7 21-206): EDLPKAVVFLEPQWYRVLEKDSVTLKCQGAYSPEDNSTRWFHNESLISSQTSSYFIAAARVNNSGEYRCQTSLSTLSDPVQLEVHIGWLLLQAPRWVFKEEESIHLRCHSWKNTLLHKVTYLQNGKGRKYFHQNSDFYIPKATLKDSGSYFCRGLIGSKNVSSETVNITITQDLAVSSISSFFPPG
T5 sequence (P08637 17-208 F176V): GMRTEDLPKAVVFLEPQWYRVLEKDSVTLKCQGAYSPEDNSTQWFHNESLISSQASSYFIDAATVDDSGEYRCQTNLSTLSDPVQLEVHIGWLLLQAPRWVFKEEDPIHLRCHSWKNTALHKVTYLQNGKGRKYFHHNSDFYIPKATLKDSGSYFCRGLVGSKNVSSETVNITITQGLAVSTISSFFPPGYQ

B1: M103240H795-SG1079 / M103202L1045-SK1 (antibody)
heavy: QVQLVESGGGLVQPGGSLRLSCAVSGIDLSHDDISWVRQAPGKGLEWVSIISYAGSTYYASWAKGRLTISKDTSKNQVVLTMTNMDPVDTATYYCARGVPAYSHGGDLWGQGTLVTVSSASTKGPSVFPLAPSSKSTSGGTAALGCLVKDYFPEPVTVSWNSGALTSGVHTFPAVLQSSGLYSLSSVVTVPSSSLGTQTYICNVNHKPSNTKVDKKVEPKSCDKTHTCPPCPAPELLNGPSVFLFPPKPKDTLMISRTPEVTCVVVDVSDEDPEVKFNWYVDGVEVHNAKTKPREELYNSTYRVVSVLTVLHRDWLNGKEYKCKVSNKALPKPIEKTISKAKGQPREPQVYTLPPSREEMTKNQVSLTCLVKGFYPSDIAVEWESNGQPENNYKTTPPVLDSDGSFFLYSKLTVKKSRWQQGNVFSCSVMHEALHAHYTRKELSLSP
light: DIVMTQSPATLSLSPGERATLSCTTSQSVYHENWLSWFQQKPGQPPKLLIYWASTLAYGVPSRFSGSGSGTDFTLTISSLQPEDAATYYCAGGYGGGRYAFGQGTKVEIKRTVAAPSVFIFPPSDEQLKSGTASVVCLLNNFYPREAKVQWKVDNALQSGNSQESVTEQDSKDSTYSLSSTLTLSKADYEKHKVYACEVTHQGLSSPVTKSFNRGEC
notes: CH with G236N/H268D/Q295L/Q311R/A330K/D413K/N434A/Q438R/S440E against SG1 (EU numbering); also called MS1032LO19-SG1079
For B1, the “KD fold (SG1 = 1)” value was determined as 5.7 fold in assay [1]; 3.2 fold in [2]; 0.8 fold in assay [3]; 3.4 fold in assay [4]; 0.18 fold in assay [5]; 3.4 fold in assay [6]. Further, the “KD fold (SG1 = 1)” value was found to be 5.6 fold in assay [7], 0.08 fold in assay [8] and 1.4 fold in [9]. Also, the Kd stood at 0.3 µM in assay [10]; 2.1 µM in assay [11]; 1.2 µM in assay [12]; 1.2 µM in assay [13]; 5.2 µM in assay [14]; 1.1 µM in [15]. For the same molecule, the values for the Kd in assay [16], in assay [17] and in [18] were 0.69 µM, 3.3 µM and 0.67 µM, respectively.

B2: M103240H795-SG1077 / M103202L1045-SK1 (antibody)
heavy: B1 heavy with L237W, K328T, P345R, K415D, M430L, Y438T
light: B1 light
notes: CH with L235W/G236N/H268D/Q295L/Q311R/K326T/A330K/P343R/M428L/N434A/Y436T/Q438R/S440E against SG1 (EU numbering); also called MS1032LO19-SG1077
In the case of B2, the “KD fold (SG1 = 1)” value in assay [1] worked out at 5.4 fold; in assay [2] it was 3.3 fold; in [3] it was 1.4 fold; in assay [4], 3.1 fold; in [5], 0.17 fold; in assay [6], 2.7 fold. For the same molecule, the figures for the “KD fold (SG1 = 1)” value in assay [7], in assay [8] and in [9] were 7.5 fold, 0.09 fold and 1 fold, respectively. Moreover, the Kd in assay [10] turned out to be 0.32 µM; in assay [11] it was 2 µM; in assay [12], 0.69 µM; in assay [13], 1.3 µM; in assay [14], 3.4 µM; in assay [15] it was 1.4 µM. Besides, the equilibrium dissociation constant (Kd) in [16] was determined as 0.51 µM; in assay [17], 2.9 µM; in assay [18] it was 0.93 µM.

B3: M103240H795-SG1081 / M103202L1045-SK1 (antibody)
heavy: B1 heavy with L237W, K328T, P345R, K415D
light: B1 light
notes: CH with L235W/G236N/H268D/Q295L/Q311R/K326T/A330K/P343R/N434A/Q438R/S440E against SG1 (EU numbering); also called MS1032LO19-SG1081
Turning to B3, the “KD fold (SG1 = 1)” value in assay [1] came to 5.9 fold; in assay [2], 3.1 fold; in [3] it was 1.4 fold; in assay [4], 3.2 fold; in assay [5], 0.17 fold; in assay [6] it was 2.7 fold. Moreover, the figures for the “KD fold (SG1 = 1)” value in assay [7], in [8] and in assay [9] were 7.7 fold, 0.09 fold and 1 fold, respectively. For the same molecule, the Kd in [10] was 0.29 µM; in assay [11], 2.1 µM; in assay [12], 0.68 µM; in [13] it was 1.8 µM; in assay [14], 3.4 µM; in assay [15] it was 1.4 µM. For the same molecule, the Kd in assay [16] came to 0.5 µM; in [17], 2.9 µM; in assay [18], 0.99 µM.

B4: M103240H795-SG1080 / M103202L1045-SK1 (antibody)
heavy: B1 heavy with K328T, P345R, K415D
light: B1 light
notes: CH with G236N/H268D/Q295L/Q311R/K326T/A330K/P343R/N434A/Q438R/S440E against SG1 (EU numbering); also called MS1032LO19-SG1080
Turning to B4, the “KD fold (SG1 = 1)” value came out at 12.6 fold in assay [1]; 6.1 fold in assay [2]; 1.7 fold in assay [3]; 6.1 fold in assay [4]; 0.13 fold in [5]; 5.8 fold in assay [6]. Besides, the “KD fold (SG1 = 1)” value in [7] is 10.5 fold; in assay [8], 0.19 fold; in assay [9], 2.1 fold. The Kd is 0.14 µM in assay [10]; 1.1 µM in assay [11]; 0.56 µM in [12]; 0.68 µM in assay [13]; 4.6 µM in assay [14]; 0.65 µM in [15]. Moreover, the Kd in [16] turned out to be 0.37 µM; in assay [17], 1.4 µM; in [18], 0.45 µM.
